Each substance was assayed on COc1cc(C=NN=Cc2cc(OC)c(O)c(OC)c2)cc(OC)c1O (assay: purified protein). Conditions: standard assay: 50 mM Na2HPO4-KH2PO4 pH 7.5, 100 µM CuSO4, 45 °C, conditions of the Km series not given separately.

First: Lac15 (uncultured bacterium)
Second: Lac15 (uncultured bacterium; DEL323-332)
The Km of the first is 1.7-fold lower: 3.74 ± 0.37 µM for the first, 6.34 ± 0.19 µM for the second.

With Lac15-His6 (uncultured bacterium) the Km was 4.53 ± 0.21 µM.

Lac15 (uncultured bacterium) and “Lac15 (uncultured bacterium; DEL323-332)” are within 1.5-fold of each other in kcat: 1.39 ± 0.11 s⁻¹ for the first, 1.69 ± 0.13 s⁻¹ for the second.

Substance Lac15-His6 (uncultured bacterium) has a kcat of 1.35 ± 0.09 s⁻¹.
